Patent US10287554B2, “Induced pluripotent stem cell model for Fabry disease and use thereof” (KOREA ADVANCED INSTITUTE OF SCIENCE AND TECHNOLOGY, priority 2013, dated 2019)

Assays:
Assay type in all cases: cell-based, human
Details in all cases: 10 μg/ml for 5 days, compared with before treatment (FIG. 15)
[1] = tested on: FB-iPSCs (Fabry disease patient originated iPSCs); assay: Gb3 deposit by anti-Gb3 immunofluorescent staining in FB-iPSCs after Fabrazyme treatment
Protocol: (§1) Particularly, the FB-iPSCs prepared in Example <1-2> were treated with phosphate buffered saline (PBS) containing 4% formaldehyde, followed by fixing at room temperature for 15 minutes. The cells were treated with 0.1% triton X-100 to give permeability to the cell membrane. After the treatment, the cells were added with 4% normal donkey serum, followed by blocking at room temperature for 1 hour. The cells were treated with the primary antibody such as anti-OCT4 antibody (1:300, R&D Systems, USA), anti-NANOG antibody (1:300, Cell signaling technology, USA), anti-SSEA-4 antibody (1:300, R&D Systems, USA), anti-SOX2 rabbit antibody (BD Transduction Laboratories, USA), anti-Tra-1-81 antibody (1:300, Millipore, USA) or anti-Tra-1-60 antibody (1:300, Millipore, USA), followed by culture overnight at 4° C. Then, the cells were washed several times with PBST (PBS containing 0.1% Tween-20). The cells were treated with Alexa Fluor 488 or Alexa Fluor 594-conjugated secondary antibody (Invitrogen, USA), followed by further culture for 1 hour, leading to immunofluorescent staining of FB-iPSCs.
To investigate whether or not the pharmacologic treatment during the FB-iPSC differentiation was effective in improving Fabry disease, the differentiation of vascular cells was induced from FB-iPSCs and then the cells were treated with Fabrazyme, the α-galactosidase recombinant protein. […]

[2] = tested on: vascular endothelial cells differentiated from FB-iPSCs; assay: Gb3 deposit by anti-Gb3 immunofluorescent staining in FB-iPSC originated vascular endothelial cells after Fabrazyme treatment
Protocol: as §1
(§2) Particularly, the FB-iPSCs developed by the same manner as described in Example <1-2> were chopped in even sizes of 300˜500 μm in diameter by using a 10 μl syringe needle. […]

[3] = tested on: vascular smooth muscle cells differentiated from FB-iPSCs; assay: Gb3 deposit by anti-Gb3 immunofluorescent staining in FB-iPSC originated vascular smooth muscle cells after Fabrazyme treatment
Protocol: as §1, §2

B1: Fabrazyme: the α-galactosidase recombinant protein (GLA recombinant protein), belonging to agalsidase beta (protein, UniProt P06280 32-429, looked up)
Alpha-galactosidase A: LDNGLARTPTMGWLHWERFMCNLDCQEEPDSCISEKLFMEMAELMVSEGWKDAGYEYLCIDDCWMAPQRDSEGRLQADPQRFPHGIRQLANYVHSKGLKLGIYADVGNKTCAGFPGSFGYYDIDAQTFADWGVDLLKFDGCYCDSLENLADGYKHMSLALNRTGRSIVYSCEWPLYMWPFQKPNYTEIRQYCNHWRNFADIDDSWKSIKSILDWTSFNQERIVDVAGPGGWNDPDMLVIGNFGLSWNQQVTQMALWAIMAAPLFMSNDLRHISPQAKALLQDKDVIAINQDPLGKQGYQLRQGDNFEVWERPLSGLAWAVAMINRQEIGGPRSYTIAVASLGKGVACNPACFITQLLPVKRKLGFYEWTSRLRSHINPTGTVLLQLENTMQMSLKDLL
- Gb3 deposit [1]: significantly reduced and hardly detected
- Gb3 deposit [2]: significantly reduced and hardly detected
- Gb3 deposit [3]: significantly reduced and hardly detected
